Patent US20120177664A1 (IMMUNAS PHARMA, published 2012)

B1: IR-028 antibody (antibody, V domains shown)
VH: DVQLVESGGGLVQPGGSRKLSCAASGFTFSSFGMHWVRQAPEKGLEWVAYISSGSSTIYYADTVKGRFTISRDNPKNTLFLQMTSLRSEDTAMYYCARTGTGAMDYWGQGTSVTVSS
VL: DVVMTQTPLSLPVSLGDQASISCRSSQSLVHSNGNTYLHWYLQKPGQSPKLLIYKVSNRFSGVPDRFSGSGSGTDFTLKISRVEAEDLGVYFCSQSTHVPPTFGGGTKLEIK
notes: mouse IgG2b
B2: IR-036 antibody (antibody, mouse IgG2b, V domains shown)
VH: QVTLKESGPGILQPSQTLSLTCSFSGFSLSTSGMGVSWIRQPSGKGLEWLAHIYWDDDKRYNPSLKSRLTISKDTSRNQVFLKITSVDTADTATYYCARRANYYGYGMDAMDYWGQGTSVTVSS
VL: DVLMTQTPLSLPVSLGDQASISCRSSQSIVHSNGNTYLEWYLQKPGQSPKLLIYKVSNRFSGVPDRFSGSGSGTDFTLKISRVEAEDLGVYYCFQGSHVPLTFGAGTKLELK
notes: mouse IgG2b
B3: IR-037 antibody (antibody, mouse IgG1, V domains shown)
VH: DVQLVESGGGLVQPGGSRKLSCAASGFTFSSFGMHWVRQAPEKGLEWVAYISSGSSTIYYADTVKGRFTISRDNPKNTLFLQMTSLRSEDTAMYYCARDGTMDYWGQGTSVTVSS
VL: DAVMTQTPLSLPVSLGDQASISCRSSQSLENSNGNTYLNWYLQKPGQSPQLLIYRVSNRFSGVLDRFSGSGSGTDFTLKISRVEAEDLGVYFCLQVTHVPPTFGGGTKLEIK
notes: mouse IgG1
B4: IR-128 antibody (antibody, V domains shown)
VH: DVQLVESGGGLVQPGGSRKLSCAASGFTFSSFGMHWVRQAPEKGLEWVAYISSGSSTIYYADTVKGRFTISRDNPKNTLFLQMTSLRSEDTAMYYCAREGHFDYWGQGTTLTVSS
VL: DVVMTQTPLSLPVSLGDQASISCRSSQSLVHSNGNTYLHWYLQKPGQSPKLLIYKVSNRFSGVPDRFSGSGSGTDFTLKISRVEAEDLGVYFCSQSTHVPPTFGGGTKLEIK
notes: mouse IgG2a
B5: IR-039 antibody (antibody, mouse IgG2b, V domains shown)
VH: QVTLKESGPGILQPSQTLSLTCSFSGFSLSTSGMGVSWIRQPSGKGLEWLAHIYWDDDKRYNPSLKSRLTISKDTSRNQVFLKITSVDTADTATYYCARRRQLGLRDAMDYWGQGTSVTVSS
VL: DVLMTQTPLSLPVSLGDQASISCRSSQSIVHSNGNTYLEWYLQKPGQSPKLLIYKVSNRFSGVPDRFSGSGSGTDFTLKISRVEAEDLGVYYCFQGSHVPLTFGAGTKLELK
notes: mouse IgG2b
B6: IR-067 antibody (antibody, mouse IgG2b, V domains shown)
VH: DVQLVESGGGLVQPGGSRKLSCAASGFTFSSFGMHWVRQAPEKGLEWVAYISSGSSTIYYADTVKGRFTISRDNPKNTLFLQMTSLRSEDTAMYYCARSGGNYLMDYWGQGTSVTVSS
VL: DVLMTQTPLSLPVSLGDQASISCRSSQSIVHSNGNTYLEWYLQKPGQSPKLLIYKVSNRFSGVPDRFSGSGSGTDFTLKISRVEAEDLGVYYCFQGSHVPLTFGAGTKLELK
notes: mouse IgG2b
B7: IR-095 antibody (antibody, mouse IgG2b, V domains shown)
VH: QVTLKESGPGILQPSQTLSLTCSFSGFSLSTSGMGVSWIRQPSGKGLEWLAHIYWDDDKRYNPSLKSRLTISKDTSRNQVFLKITSVDTADTATYYCARRAPRLYYGYDAMDYWGQGTSVTVSS
VL: DVLMTQTPLSLPVSLGDQASISCRSSQSIVHSNGNTYLEWYLQKPGQSPKLLIYKVSNRFSGVPDRFSGSGSGTDFTLKISRVEAEDLGVYYCFQGSHVPLTFGAGTKLELK
notes: mouse IgG2b
B8: IR-057 antibody (antibody, mouse IgG1, V domains shown)
VH: DVQLVESGGGLVQPGGSRKLSCAASGFTFSSFGMHWVRQAPEKGLEWVAYISSGSSTIYYADTVKGRFTISRDNPKNTLFLQMTSLRSEDTAMYYCARYGNYAMDYWGQGTSVTVSS
VL: DVLMTQTPLSLPVSLGDQASISCRSSQSIVHSNGNTYLEWYLQKPGQSPKLLIYKVSNRFSGVPDRFSGSGSGTDFTLKISRVEAEDLGVYYCFQGSHVPPTFGGGTKLEIK
notes: mouse IgG1
B9: IR-127 antibody (antibody, mouse IgG2a, V domains shown)
VH: DVQLVESGGGLVQPGGSRKLSCAASGFTFSSFGMHWVRQAPEKGLEWVAYISSGSSTIYYADTVKGRFTISRDNPKNTLFLQMTSLRSEDTAMYYCARKGTYYRYDAFDYWGQGTTLTVSS
VL: DVLMTQTPLSLPVSLGDQASISCRSSQSIVHSNGNTYLEWYLQKPGQSPKLLIYKVSNRFSGVPDRFSGSGSGTDFTLKISRVEAEDLGVYYCFQGSHVPPTFGGGTKLEIK
notes: mouse IgG2a
B10: IR-063 antibody (antibody, mouse IgG2b, V domains shown)
VH: DVQLVESGGGLVQPGGSRKLSCAASGFTFSSFGMHWVRQAPEKGLEWVAYISSGSSTIYYADTVKGRFTISRDNPKNTLFLQMTSLRSEDTAMYYCAREGDFDYWGQGTTLTVSS
VL: DVVMTQTPLSLPVSLGDQASISCRSSQSLVHSNGNTYLHWYLQKPGQSPKLLIYKVSNRFSGVPDRFSGSGSGTDFTLKISRVEAEDLGVYFCSQSTHVPLTFGAGTKLELK
notes: mouse IgG2b
B11: IR-081 antibody (antibody, mouse IgG2b, V domains shown)
VH: DVQLVESGGGLVQPGGSRKLSCAASGFTFSSFGMHWVRQAPEKGLEWVAYISSGSSTIYYADTVKGRFTISRDNPKNTLFLQMTSLRSEDTAMYYCARRWGEGAMDYWGQGTSVTVSS
VL: DVLMTQTPLSLPVSLGDQASISCRSSQSIVHSNGNTYLEWYLQKPGQSPKLLIYKVSNRFSGVPDRFSGSGSGTDFTLKISRVEAEDLGVYYCFQGSHVPPTFGGGTKLEIK
notes: mouse IgG2b
B12: IR-124 antibody (antibody, mouse IgG2a, V domains shown)
VH: DVQLVESGGGLVQPGGSRKLSCAASGFTFSSFGMHWVRQAPEKGLEWVAYISSGSSTIYYADTVKGRFTISRDNPKNTLFLQMTSLRSEDTAMYYCAIYYYGSSYYWGQGTTLTVSS
VL: DVLMTQTPLSLPVSLGDQASISCRSSQSIVHSNGNTYLEWYLQKPGQSPKLLIYKVSNRFSGVPDRFSGSGSGTDFTLKISRVEAEDLGVYYCFQGSHVPPTFGAGTKLELK
notes: mouse IgG2a
B13: IR-038 antibody (antibody, mouse IgG2b, V domains shown)
VH: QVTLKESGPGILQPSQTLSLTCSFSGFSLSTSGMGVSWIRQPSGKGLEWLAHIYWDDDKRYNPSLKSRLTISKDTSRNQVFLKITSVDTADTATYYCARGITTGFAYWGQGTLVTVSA
VL: DVLMTQTPLSLPVSLGDQASISCRSSQSIVHSNGNTYLEWYLQKPGQSPKLLIYKVSNRFSGVPDRFSGSGSGTDFTLKISRVEAEDLGVYYCFQGSHVPLTFGAGTKLELK
notes: mouse IgG2b
B14: IR-125 antibody (antibody, mouse IgG2b, V domains shown)
VH: DVQLVESGGGLVQPGGSRKLSCAASGFTFSSFGMHWVRQAPEKGLEWVAYISSGSSTIYYADTVKGRFTISRDNPKNTLFLQMTSLRSEDTAMYYCARAGGYSLSYAMDYWGQGTSVTVSS
VL: DVLMTQTPLSLPVSLGDQASISCRSSQSIVHSNGNTYLEWYLQKPGQSPKLLIYKVSNRFSGVPDRFSGSGSGTDFTLKISRVEAEDLGVYYCFQGSHVPPTFGGGTKLEIK
notes: mouse IgG2b
B15: IR-146 antibody (antibody, mouse IgG2a, V domains shown)
VH: DVQLVESGGGLVQPGGSRKLSCAASGFTFSSFGMHWVRQAPEKGLEWVAYISSGSSTIYYADTVKGRFTISRDNPKNTLFLQMTSLRSEDTAMYYCARGGTGAMDYWGQGTSVTVSS
VL: DVLMTQTPLSLPVSLGDQASISCRSSQSIVHSNGNTYLEWYLQKPGQSPKLLIYKVSNRFSGVPDRFSGSGSGTDFTLKISRVEAEDLGVYYCFQGSHVPPTFGGGTKLEIK
notes: mouse IgG2a
B16: IR-077 antibody (antibody, mouse IgG2a, V domains shown)
VH: DVQLVESGGGLVQPGGSRKLSCAASGFTFSSFGMHWVRQAPEKGLEWVAYISSGSSTIYYADTVKGRFTISRDNPKNTLFLQMTSLRSEDTAMYYCARSGYRYSYYAMDYWGQGTSVTVSS
VL: DVLMTQTPLSLPVSLGDQASISCRSSQSIVHSNGNTYLEWYLQKPGQSPKLLIYKVSNRFSGVPDRFSGSGSGTDFTLKISRVEAEDLGVYYCFQGSHVPLTFGAGTKLELK
notes: mouse IgG2a
B17: IR-062 antibody (antibody, mouse IgG2b, V domains shown)
VH: DVQLVESGGGLVQPGGSRKLSCAASGFTFSSFGMHWVRQAPEKGLEWVAYISSGSSTIYYADTVKGRFTISRDNPKNTLFLQMTSLRSEDTAMYYCARYYHYAMDYWGQGTSVTVSS
VL: DVLMTQTPLSLPVSLGDQASISCRSSQSIVHSNGNTYLEWYLQKPGQSPKLLIYKVSNRFSGVPDRFSGSGSGTDFTLKISRVEAEDLGVYYCFQGSHVPPTFGGGTKLEIK
notes: mouse IgG2b
B18: IR-060 antibody (antibody, mouse IgG2a, V domains shown)
VH: DVQLVESGGGLVQPGGSRKLSCAASGFTFSSFGMHWVRQAPEKGLEWVAYISSGSSTIYYADTVKGRFTISRDNPKNTLFLQMTSLRSEDTAMYYCARGGNYLRYYAMDYWGQGTSVTVSS
VL: DVLMTQTPLSLPVSLGDQASISCRSSQSIVHSNGNTYLEWYLQKPGQSPKLLIYKVSNRFSGVPDRFSGSGSGTDFTLKISRVEAEDLGVYYCFQGSHVPLTFGAGTKLELK
notes: mouse IgG2a
B19: IR-121 antibody (antibody, mouse IgG2b, V domains shown)
VH: DVQLVESGGGLVQPGGSRKLSCAASGFTFSSFGMHWVRQAPEKGLEWVAYISSGSSTIYYADTVKGRFTISRDNPKNTLFLQMTSLRSEDTAMYYCATYGIYAMDYWGQGTSVTVSS
VL: DVLMTQTPLSLPVSLGDQASISCRSSQSIVHSNGNTYLEWYLQKPGQSPKLLIYKVSNRFSGVPDRFSGSGSGTDFTLKISRVEAEDLGVYYCFQGSHVPPTFGGGTKLEIK
notes: mouse IgG2b
B20: IR-041 antibody (antibody, mouse IgG2a, V domains shown)
VH: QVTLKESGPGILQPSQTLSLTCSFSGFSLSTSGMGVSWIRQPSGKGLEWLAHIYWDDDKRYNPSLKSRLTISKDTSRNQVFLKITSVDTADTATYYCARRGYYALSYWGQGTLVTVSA
VL: DVLMTQTPLSLPVSLGDQASISCRSSQSIVHSNGNTYLEWYLQKPGQSPKLLIYKVSNRFSGVPDRFSGSGSGTDFTLKISRVEAEDLGVYYCFQGSHVPLTFGAGTKLELK
notes: mouse IgG2a

Each binder was assayed against T1, A beta oligomer (synthetic A beta1-40, HCl form, 0.1 mg/ml in PBS, incubated at 37 degrees C for one hour) (UniProt P05067 672-711) (assay: SPR (Biacore 3000)).
T1 construct: domain: A beta1-40; non-fibrous multimer of the peptide; also called A beta 1-40 oligomer
Method: The analysis was carried out by Surface Plasmon Resonance (SPR) using Biacore 3000 (GE Healthcare Sciences).
Binder B1 has a Kd of 852 nM, a koff of 0.27 s⁻¹ and a kon of 317000 M⁻¹ s⁻¹. B2 was tested, and the Kd was 100 nM, the koff was 0.00876 s⁻¹ and the kon was 87600 M⁻¹ s⁻¹. For B3, the Kd was 659 nM, the koff was 0.0609 s⁻¹ and the kon was 92400 M⁻¹ s⁻¹. B4 gave a Kd of 1070 nM, a koff of 0.37 s⁻¹ and a kon of 345000 M⁻¹ s⁻¹. Work on B5 yielded a Kd of 47.4 nM, a koff of 0.00711 s⁻¹ and a kon of 150000 M⁻¹ s⁻¹. In the case of B6, the Kd is reported as 549 nM, the koff is reported as 0.118 s⁻¹ and the kon is reported as 215000 M⁻¹ s⁻¹. With B7 the Kd was 35 nM, the koff was 0.00331 s⁻¹ and the kon was 94600 M⁻¹ s⁻¹. With B8 the Kd was 156 nM, the koff was 0.0579 s⁻¹ and the kon was 370000 M⁻¹ s⁻¹. B9 was tested, and the Kd was 1020 nM, the koff was 0.261 s⁻¹ and the kon was 256000 M⁻¹ s⁻¹. Work on B10 yielded a Kd of 1270 nM, a koff of 0.145 s⁻¹ and a kon of 114000 M⁻¹ s⁻¹. B11 gave a Kd of 1250 nM, a koff of 0.421 s⁻¹ and a kon of 336000 M⁻¹ s⁻¹. For B12, the Kd was 141 nM, the koff was 0.00995 s⁻¹ and the kon was 70400 M⁻¹ s⁻¹. With B13 the Kd was 84.3 nM, the koff was 0.00752 s⁻¹ and the kon was 89200 M⁻¹ s⁻¹. In the case of B14, the Kd is reported as 78.8 nM, the koff is reported as 0.00395 s⁻¹ and the kon is reported as 50100 M⁻¹ s⁻¹. In the case of B15, the Kd is reported as 1060 nM, the koff is reported as 0.383 s⁻¹ and the kon is reported as 361000 M⁻¹ s⁻¹. B16 gave a Kd of 550 nM, a koff of 0.153 s⁻¹ and a kon of 278000 M⁻¹ s⁻¹. B17 was tested, and the Kd was 364 nM, the koff was 0.139 s⁻¹ and the kon was 382000 M⁻¹ s⁻¹. B18 was tested, and the Kd was 2610 nM, the koff was 0.2 s⁻¹ and the kon was 76700 M⁻¹ s⁻¹. Binder B19 has a Kd of 84.2 nM, a koff of 0.00831 s⁻¹ and a kon of 98700 M⁻¹ s⁻¹. B20 showed a Kd of 1370 nM, a koff of 0.0949 s⁻¹ and a kon of 69400 M⁻¹ s⁻¹.
